The values that follow come from publication doi:10.1101/2019.12.23.887380v2.

Substrate in this series: O=[N+]([O-])c1ccc(O[C@@H]2O[C@H](CO)[C@@H](O)[C@H](O)[C@H]2O)cc1
The series can be described thus: purified protein.

The mark [1] stands for this setting: WT-1 preparation, absorbance followed 1 h.
The mark [2] stands for this setting: tested with WT-1, error exceeds value, poorly determined fit.

B1: β-glucosidase B (BglB) (Paenibacillus polymyxa) (protein)
chain: MSENTFIFPATFMWGTSTSSYQIEGGTDEGGRTPSIWDTFCQIPGKVIGGDCGDVACDHFHHFKEDVQLMKQLGFLHYRFSVAWPRIMPAAGIINEEGLLFYEHLLDEIELAGLIPMLTLYHWDLPQWIEDEGGWTQRETIQHFKTYASVIMDRFGERINWWNTINEPYCASILGYGTGEHAPGHENWREAFTAAHHILMCHGIASNLHKEKGLTGKIGITLNMEHVDAASERPEDVAAAIRRDGFINRWFAEPLFNGKYPEDMVEWYGTYLNGLDFVQPGDMELIQQPGDFLGINYYTRSIIRSTNDASLLQVEQVHMEEPVTDMGWEIHPESFYKLLTRIEKDFSKGLPILITENGAAMRDELVNGQIEDTGRHGYIEEHLKACHRFIEEGGQLKGYFVWSFLDNFEWAWGYSKRFGIVHINYETQERTPKQSALWFKQMMAKNGF
As to B1, under setting [1], the Km was found to be 5.4 ± 0.88 mM and the kcat was 0.6198 ± 0.056 s⁻¹.

B2: β-glucosidase B (BglB) (Paenibacillus polymyxa; F155G) (protein)
chain: MSENTFIFPATFMWGTSTSSYQIEGGTDEGGRTPSIWDTFCQIPGKVIGGDCGDVACDHFHHFKEDVQLMKQLGFLHYRFSVAWPRIMPAAGIINEEGLLFYEHLLDEIELAGLIPMLTLYHWDLPQWIEDEGGWTQRETIQHFKTYASVIMDRGGERINWWNTINEPYCASILGYGTGEHAPGHENWREAFTAAHHILMCHGIASNLHKEKGLTGKIGITLNMEHVDAASERPEDVAAAIRRDGFINRWFAEPLFNGKYPEDMVEWYGTYLNGLDFVQPGDMELIQQPGDFLGINYYTRSIIRSTNDASLLQVEQVHMEEPVTDMGWEIHPESFYKLLTRIEKDFSKGLPILITENGAAMRDELVNGQIEDTGRHGYIEEHLKACHRFIEEGGQLKGYFVWSFLDNFEWAWGYSKRFGIVHINYETQERTPKQSALWFKQMMAKNGF
With B2, under “tested with WT-1”, the Michaelis constant (Km) stood at 6.10 mM and the kcat worked out at 0.3093 s⁻¹.

B3: β-glucosidase B (BglB) (Paenibacillus polymyxa; Q22T) (protein)
chain: MSENTFIFPATFMWGTSTSSYTIEGGTDEGGRTPSIWDTFCQIPGKVIGGDCGDVACDHFHHFKEDVQLMKQLGFLHYRFSVAWPRIMPAAGIINEEGLLFYEHLLDEIELAGLIPMLTLYHWDLPQWIEDEGGWTQRETIQHFKTYASVIMDRFGERINWWNTINEPYCASILGYGTGEHAPGHENWREAFTAAHHILMCHGIASNLHKEKGLTGKIGITLNMEHVDAASERPEDVAAAIRRDGFINRWFAEPLFNGKYPEDMVEWYGTYLNGLDFVQPGDMELIQQPGDFLGINYYTRSIIRSTNDASLLQVEQVHMEEPVTDMGWEIHPESFYKLLTRIEKDFSKGLPILITENGAAMRDELVNGQIEDTGRHGYIEEHLKACHRFIEEGGQLKGYFVWSFLDNFEWAWGYSKRFGIVHINYETQERTPKQSALWFKQMMAKNGF
With B3, under setting [2], the Km is recorded as 99.02 ± 247.88 mM and the turnover number (kcat) turned out to be 0.00433 ± 0.001 s⁻¹.

B4: β-glucosidase B (BglB) (Paenibacillus polymyxa; Y169M) (protein)
chain: MSENTFIFPATFMWGTSTSSYQIEGGTDEGGRTPSIWDTFCQIPGKVIGGDCGDVACDHFHHFKEDVQLMKQLGFLHYRFSVAWPRIMPAAGIINEEGLLFYEHLLDEIELAGLIPMLTLYHWDLPQWIEDEGGWTQRETIQHFKTYASVIMDRFGERINWWNTINEPMCASILGYGTGEHAPGHENWREAFTAAHHILMCHGIASNLHKEKGLTGKIGITLNMEHVDAASERPEDVAAAIRRDGFINRWFAEPLFNGKYPEDMVEWYGTYLNGLDFVQPGDMELIQQPGDFLGINYYTRSIIRSTNDASLLQVEQVHMEEPVTDMGWEIHPESFYKLLTRIEKDFSKGLPILITENGAAMRDELVNGQIEDTGRHGYIEEHLKACHRFIEEGGQLKGYFVWSFLDNFEWAWGYSKRFGIVHINYETQERTPKQSALWFKQMMAKNGF
As for B4, under “tested with WT-2”, the Km is reported as 22.2 ± 5.53 mM and the kcat amounted to 0.8428 ± 0.2272 s⁻¹.

B5: β-glucosidase B (BglB) (Paenibacillus polymyxa; W123R) (protein)
chain: MSENTFIFPATFMWGTSTSSYQIEGGTDEGGRTPSIWDTFCQIPGKVIGGDCGDVACDHFHHFKEDVQLMKQLGFLHYRFSVAWPRIMPAAGIINEEGLLFYEHLLDEIELAGLIPMLTLYHRDLPQWIEDEGGWTQRETIQHFKTYASVIMDRFGERINWWNTINEPYCASILGYGTGEHAPGHENWREAFTAAHHILMCHGIASNLHKEKGLTGKIGITLNMEHVDAASERPEDVAAAIRRDGFINRWFAEPLFNGKYPEDMVEWYGTYLNGLDFVQPGDMELIQQPGDFLGINYYTRSIIRSTNDASLLQVEQVHMEEPVTDMGWEIHPESFYKLLTRIEKDFSKGLPILITENGAAMRDELVNGQIEDTGRHGYIEEHLKACHRFIEEGGQLKGYFVWSFLDNFEWAWGYSKRFGIVHINYETQERTPKQSALWFKQMMAKNGF
As to B5, under setting [2], the Km was determined as 49.63 ± 324.02 mM and the kcat was found to be 0.00025 ± 0.0013 s⁻¹.

B6: β-glucosidase B (BglB) (Paenibacillus polymyxa; W438D) (protein)
chain: MSENTFIFPATFMWGTSTSSYQIEGGTDEGGRTPSIWDTFCQIPGKVIGGDCGDVACDHFHHFKEDVQLMKQLGFLHYRFSVAWPRIMPAAGIINEEGLLFYEHLLDEIELAGLIPMLTLYHWDLPQWIEDEGGWTQRETIQHFKTYASVIMDRFGERINWWNTINEPYCASILGYGTGEHAPGHENWREAFTAAHHILMCHGIASNLHKEKGLTGKIGITLNMEHVDAASERPEDVAAAIRRDGFINRWFAEPLFNGKYPEDMVEWYGTYLNGLDFVQPGDMELIQQPGDFLGINYYTRSIIRSTNDASLLQVEQVHMEEPVTDMGWEIHPESFYKLLTRIEKDFSKGLPILITENGAAMRDELVNGQIEDTGRHGYIEEHLKACHRFIEEGGQLKGYFVWSFLDNFEWAWGYSKRFGIVHINYETQERTPKQSALDFKQMMAKNGF
Turning to B6, for the setting “tested with WT-2”, the Km was determined as 10.28 ± 2.14 mM and the kcat turned out to be 0.1765 ± 0.0275 s⁻¹.

B7: β-glucosidase B (BglB) (Paenibacillus polymyxa; V401A) (protein)
chain: MSENTFIFPATFMWGTSTSSYQIEGGTDEGGRTPSIWDTFCQIPGKVIGGDCGDVACDHFHHFKEDVQLMKQLGFLHYRFSVAWPRIMPAAGIINEEGLLFYEHLLDEIELAGLIPMLTLYHWDLPQWIEDEGGWTQRETIQHFKTYASVIMDRFGERINWWNTINEPYCASILGYGTGEHAPGHENWREAFTAAHHILMCHGIASNLHKEKGLTGKIGITLNMEHVDAASERPEDVAAAIRRDGFINRWFAEPLFNGKYPEDMVEWYGTYLNGLDFVQPGDMELIQQPGDFLGINYYTRSIIRSTNDASLLQVEQVHMEEPVTDMGWEIHPESFYKLLTRIEKDFSKGLPILITENGAAMRDELVNGQIEDTGRHGYIEEHLKACHRFIEEGGQLKGYFAWSFLDNFEWAWGYSKRFGIVHINYETQERTPKQSALWFKQMMAKNGF
As for B7, where the note is “tested with WT-2”, the Km was found to be 8.27 ± 1.24 mM and the kcat worked out at 0.341 ± 0.0215 s⁻¹.
